Assay results: patent publication US20230235039A1

Molecular target: human recombinant IL-5 protein with a histidine tag at carboxyl terminal (human) (UniProt P05113)
Test: cell-based or functional assay

Binder | EC50 for neutralizing IL-5-induced TF-1 cell proliferation
Fc fusion protein of anti-IL-5 single-domain antibody 4B12 (Fc fusion, not shown: a dimerising Fc or GST) chain (part 1 of 2): QVQLVESGGGSVQPGGSLRLSCAASGNTFSFSTYCMGWFRQSPGKEREGSLATIYDGSTAYAGSVKGRFTVSVDNAKNILYLQMNNLKPEDTAMYYCASAKYCMFWSDPSYWGQGTQVTVSS chain (part 2 of 2): HHHHHH | 0.196
Fc fusion protein of anti-IL-5 single-domain antibody 4D5 (Fc fusion, not shown: a dimerising Fc or GST) chain (part 1 of 2): QVQLVESGGGSVQAGGSLRLSCAASGNTFSTSTYCMGWFRQSPGKEREGSLATIYDGSTAYAGSVKGRFTISVDNAKNILYLQMNNLKPEDTAMYYCAAAKYCMFWSDPSYWGQGTQVTVSS chain (part 2 of 2): HHHHHH | 0.427
Fc fusion protein of anti-IL-5 single-domain antibody 4G8 (Fc fusion, not shown: a dimerising Fc or GST) chain (part 1 of 2): QVQLVESGGGSVQAGGSLRLSCAASGITSSTSCMGWFRQSPGKEREGSLATIYDGAISYADSVKGRFTISVDNAKNILYLQMNNLKPEDTAMYYCAAAKYCMFWSDPSYWGQGTQVTVSS chain (part 2 of 2): HHHHHH | 0.176
Fc fusion protein of anti-IL-5 single-domain antibody 1B8 (Fc fusion, not shown: a dimerising Fc or GST) chain (part 1 of 2): QVQLVESGGGSVQAGGSLRLSCAASGITASTSCMGWFRQSPGKEREGSLATIYDGSTSYADSVKGQFTISVDNAKNILYLQMNNLKPEDTAMYYCAAAKYCMFWSHPSYWGQGTQVTVSS chain (part 2 of 2): HHHHHH | 0.175
Fc fusion protein of anti-IL-5 single-domain antibody 2G6 (Fc fusion, not shown: a dimerising Fc or GST) chain (part 1 of 2): QVQLVESGGGSVQAGGSLRLSCAASGITSSTSCMGWFRQSPGKEREGSLATIYDGNISYADSVKGRFTISVDNAKNILYLQMNNLKPEDTAMYYCAAAKYCMFWSDPSYWGQGTQVTVSS chain (part 2 of 2): HHHHHH | 0.188
Fc fusion protein of anti-IL-5 single-domain antibody 2F7 (Fc fusion, not shown: a dimerising Fc or GST) chain (part 1 of 2): QVQLVESGGGSVQAGGSLRLSCAASGITASTSCMGWFRQSPGKEREGSLATIYDGSTSYADSVKGRFTISVDNAKNILYLQMNNLKPADTAMYYCAAAKYCMFWSHPSYWGQGTQVTVSS chain (part 2 of 2): HHHHHH | 0.15
humanized Fc-fused single-domain antibody 1B3-V5 (Fc fusion, not shown: a dimerising Fc or GST) chain (part 1 of 2): QVQLVESGGGSVQAGGSLRLSCAASGITASTSCMGWFRQSPGKEREGSLATIYDGSTSYADSVKGRFTISRDNSKNILYLQMNNLRAEDTAVYYCAAARYCMFWSHPSYWGQGTQVTVSS chain (part 2 of 2): HHHHHH | 0.274
humanized Fc-fused single-domain antibody 1B3-V4 (Fc fusion, not shown: a dimerising Fc or GST) chain (part 1 of 2): QVQLVESGGGSVQAGGSLRLSCAASGITASTSCMGWFRQSPGKEREGSLATIYDASTSYADSVKGRFTISRDNAKNILYLQMNNLRAEDTAVYYCAAARYCMFWSHPSYWGQGTQVTVSS chain (part 2 of 2): HHHHHH | 0.237
Fc fusion protein of anti-IL-5 single-domain antibody 4H2 (Fc fusion, not shown: a dimerising Fc or GST) chain (part 1 of 2): QVQLVESEGGSVQAGGSLRLSCAVSGITSSTACMGWFRQSPGKEREGSLATIYDGSISYADSVKGRFTISVDNAKNILYLQMNNLKPEDTAMYYCAAAKYCMFWSDPSYWGQGTQVTVSS chain (part 2 of 2): HHHHHH | 0.189
humanized Fc-fused single-domain antibody 1B3-V3 (Fc fusion, not shown: a dimerising Fc or GST) chain (part 1 of 2): QVQLVESGGGSVQAGGSLRLSCAASGITASTSCMGWFRQSPGKEREGSLATIYDASTSYADSVKGRFTISVDNAKNILYLQMNNLKPEDTAMYYCAAARYCMFWSHPSYWGQGTQVTVSS chain (part 2 of 2): HHHHHH | 0.219
Fc fusion protein of anti-IL-5 single-domain antibody 3G12 (Fc fusion, not shown: a dimerising Fc or GST) chain (part 1 of 2): QVQLVESGGGSVQAGGSLRLSCVASGLTLNDVSMAWFRQAPGKEREEVAGIDIDGLISYADSVKGRFTISKDNAQNTLYLQMNSLKPEDTAMYSCAAVRLYFSSSRNQYKYEGQGTQVTVSS chain (part 2 of 2): HHHHHH | 2.09
Fc fusion protein of anti-IL-5 single-domain antibody 4C3 (Fc fusion, not shown: a dimerising Fc or GST) chain (part 1 of 2): QVQLVESGGGSVQAGGSLRLSCVASGLTLNDVSMAWFRQAPGKEREEVAGIDIDGLISYADPVKGRFTISKDNAQNTMYLQMNSLKPEDTAMYSCAAVRLYFSSSRNQYKYEGQGTQVTVSS chain (part 2 of 2): HHHHHH | 4.4
Fc fusion protein of anti-IL-5 single-domain antibody 1F4 (Fc fusion, not shown: a dimerising Fc or GST) chain (part 1 of 2): QVQLVESGGGSAQAGGSLRLSCAASGNTLDLMAWFRQAPGKEREGVAGIYSSGTTYYADSVKGRFTVSRDNAKNTVYLQMNSLKPEDAAMYYCAAKVSWYGRWYQSETYEYWGQGTQVTVSS chain (part 2 of 2): HHHHHH | 0.1
Tab1 (control antibody 1), mepolizumab (antibody, INN chains, looked up, V domains shown) VH: QVTLRESGPALVKPTQTLTLTCTVSGFSLTSYSVHWVRQPPGKGLEWLGVIWASGGTDYNSALMSRLSISKDTSRNQVVLTMTNMDPVDTATYYCARDPPSSLLRLDYWGRGTPVTVSS VL: DIVMTQSPDSLAVSLGERATINCKSSQSLLNSGNQKNYLAWYQQKPGQPPKLLIYGASTRESGVPDRFSGSGSGTDFTLTISSLQAEDVAVYYCQNVHSFPFTFGGGTKLEIK | 0.234
Tab2 (control antibody 2), reslizumab (antibody, INN chains, looked up, V domains shown) VH: EVQLVESGGGLVQPGGSLRLSCAVSGLSLTSNSVNWIRQAPGKGLEWVGLIWSNGDTDYNSAIKSRFTISRDTSKSTVYLQMNSLRAEDTAVYYCAREYYGYFDYWGQGTLVTVSS VL: DIQMTQSPSSLSASVGDRVTITCLASEGISSYLAWYQQKPGKAPKLLIYGANSLQTGVPSRFSGSGSATDYTLTISSLQPEDFATYYCQQSYKFPNTFGQGTKVEVK | 0.0664
humanized Fc-fused single-domain antibody 1B3-V1 (Fc fusion, not shown: a dimerising Fc or GST) chain (part 1 of 2): QVQLVESGGGLVQPGGSLRLSCAASGITASTSCMGWFRQAPGKGLEAVAATIYDGSTYYADSVKGRFTISRDNSKNTLYLQMNSLRAEDTAVYYCAAARYCMFWSHPSYWGQGTLVTVSS chain (part 2 of 2): HHHHHH | 2.82

Molecular target: IL-5 protein (Novoprotein, Cat #CS 33) (human) (UniProt P05113)
Test: indirect ELISA on IL-5 protein, antibody titrated, OD450

Binder | EC50 (read off the curve)
Tab2 (control antibody 2), reslizumab (antibody, INN chains, looked up, V domains shown) VH: EVQLVESGGGLVQPGGSLRLSCAVSGLSLTSNSVNWIRQAPGKGLEWVGLIWSNGDTDYNSAIKSRFTISRDTSKSTVYLQMNSLRAEDTAVYYCAREYYGYFDYWGQGTLVTVSS VL: DIQMTQSPSSLSASVGDRVTITCLASEGISSYLAWYQQKPGKAPKLLIYGANSLQTGVPSRFSGSGSATDYTLTISSLQPEDFATYYCQQSYKFPNTFGQGTKVEVK | 0.8 nM

Molecular target: human recombinant IL-5 protein with a histidine tag at carboxyl terminal (human) (UniProt P05113)
Test: BLI (Octet 96), binding molecule on sensor, IL-5 antigen 200 nM and 2-fold dilutions

Binder | Kd | koff | kon
Tab1 (control antibody 1), mepolizumab (antibody, INN chains, looked up, V domains shown) VH: QVTLRESGPALVKPTQTLTLTCTVSGFSLTSYSVHWVRQPPGKGLEWLGVIWASGGTDYNSALMSRLSISKDTSRNQVVLTMTNMDPVDTATYYCARDPPSSLLRLDYWGRGTPVTVSS VL: DIVMTQSPDSLAVSLGERATINCKSSQSLLNSGNQKNYLAWYQQKPGQPPKLLIYGASTRESGVPDRFSGSGSGTDFTLTISSLQAEDVAVYYCQNVHSFPFTFGGGTKLEIK | 0.99 nM | 8.22e-05 s⁻¹ | 82600 M⁻¹ s⁻¹
